Experimental data: patent publication US20240141039A1 (AGENUS, published 2024)

Tests used:
[1] = molecular target: T1, full-length isoform 2 ECD of cynomolgus monkey CD96 (His-tagged) (cynomolgus monkey); experiment: SPR Biacore T200, Protein A capture, 1:1 model, experiment #1
T1 construct: also called His-tagged isoform 2 of cynomolgus monkey CD96; cyno CD96 extracellular domain isoform 2
T1 chain: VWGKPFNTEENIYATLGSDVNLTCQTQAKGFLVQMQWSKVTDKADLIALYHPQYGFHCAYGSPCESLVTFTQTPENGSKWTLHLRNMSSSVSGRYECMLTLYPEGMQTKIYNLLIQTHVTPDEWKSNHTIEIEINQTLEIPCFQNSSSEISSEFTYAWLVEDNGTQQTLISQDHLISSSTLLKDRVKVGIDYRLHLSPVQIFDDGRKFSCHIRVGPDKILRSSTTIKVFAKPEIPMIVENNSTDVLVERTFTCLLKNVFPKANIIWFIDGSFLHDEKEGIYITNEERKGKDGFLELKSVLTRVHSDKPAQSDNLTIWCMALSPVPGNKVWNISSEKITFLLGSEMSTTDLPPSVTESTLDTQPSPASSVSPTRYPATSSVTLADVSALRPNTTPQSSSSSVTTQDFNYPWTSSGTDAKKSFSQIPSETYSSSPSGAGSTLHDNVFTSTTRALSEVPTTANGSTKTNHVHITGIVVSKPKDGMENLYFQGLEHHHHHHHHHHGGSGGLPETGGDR
Procedure: Briefly, surface plasmon resonance experiments were performed using a Biacore T200 instrument, and the association rate (kₐ), dissociation rate (kd), and dissociation constant (KD) were calculated from each experiment using a 1:1 binding model with Biacore T200 Evaluation Software.
Multispecific molecules were captured using a 30-sec injection at a flow rate of 10 μl/min to reach about 350 resonance units (RUs). […] The sensor chip was regenerated between cycles with two 30-sec injections of 10 mM glycine, pH 1.5. Sensorgrams were evaluated and fit to a simple Langmuir 1:1 interaction model using the global data analysis option of BIAevaluation 3.0 software. Data quality was verified by visually inspecting deviations and curve fitting, and by evaluating the parameters of Rₘₐₓ, Chi2, and Tc.

[2] = molecular target: T2, wild type full-length cynomolgus monkey CD96 isoform 2 expressed on CHO cells (cynomolgus monkey, UniProt A0A2K5TWV6 22-569); experiment: flow cytometry on CHO cells expressing cynomolgus CD96 isoform 2, PE anti-human IgG Fc detection
T2 construct: whole, on cells; also called cynomolgus CD96-CHO cells; cynomolgus CD96-CHO (isoform 2)
T2 sequence: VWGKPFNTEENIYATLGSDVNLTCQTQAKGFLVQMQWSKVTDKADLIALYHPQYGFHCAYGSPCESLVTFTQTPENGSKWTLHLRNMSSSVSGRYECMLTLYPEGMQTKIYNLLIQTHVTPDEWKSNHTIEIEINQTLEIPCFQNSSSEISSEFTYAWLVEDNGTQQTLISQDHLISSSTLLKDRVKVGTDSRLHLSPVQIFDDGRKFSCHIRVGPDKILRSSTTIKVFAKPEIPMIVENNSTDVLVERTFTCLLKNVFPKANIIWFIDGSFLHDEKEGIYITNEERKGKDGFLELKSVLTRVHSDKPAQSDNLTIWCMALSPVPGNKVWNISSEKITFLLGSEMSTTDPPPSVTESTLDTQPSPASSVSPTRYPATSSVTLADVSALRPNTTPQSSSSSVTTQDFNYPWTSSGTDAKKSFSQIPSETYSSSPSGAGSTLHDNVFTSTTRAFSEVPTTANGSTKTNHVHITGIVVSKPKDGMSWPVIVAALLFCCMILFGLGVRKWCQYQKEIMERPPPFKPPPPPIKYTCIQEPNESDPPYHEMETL

[3] = molecular target: T3, wild type full-length human TIGIT expressed on cells (human, UniProt Q495A1 22-244); experiment: flow cytometry on CHO cells expressing human TIGIT, PE anti-human IgG Fc detection
T3 construct: whole, on cells; also called human TIGIT-CHO; human TIGIT CHO cells
T3 sequence (looked up): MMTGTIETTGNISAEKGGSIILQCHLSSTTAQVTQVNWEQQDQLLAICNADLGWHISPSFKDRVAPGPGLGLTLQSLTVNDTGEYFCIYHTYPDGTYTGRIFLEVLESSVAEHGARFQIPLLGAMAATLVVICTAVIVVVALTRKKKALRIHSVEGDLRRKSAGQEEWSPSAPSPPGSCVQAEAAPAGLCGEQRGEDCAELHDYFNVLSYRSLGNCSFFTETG
Procedure: The ability of anti-TIGIT antibodies to bind to wild type human TIGIT expressed on the surface of CHO cells was assessed. Briefly, CHO cells were transfected with a vector encoding wild type human TIGIT (human TIGIT-CHO), and clones stably expressing TIGIT were selected.
For the antibody binding assay, a frozen aliquot of human TIGIT-CHO cells was thawed at 37° C. and then transferred to a tube containing DPBS supplemented with 0.5% Bovine Serum Albumin and 0.05% Sodium Azide (FACS Buffer). Cells were centrifuged at 300 g for five minutes. The supernatant was discarded, and cells resuspended in FACS buffer were seeded in a 96-well U-bottom tissue culture plate at a density of […] cells per well in 50 μL. In a separate microplate, a 2× concentrated intermediate stock of each antibody was prepared. Antibodies were serially diluted 1-to-4 in FACS buffer. A total of 11 working dilutions ranging from 60 μg/mL to 0.000057 μg/mL were prepared. […] After a 30-minute incubation on ice, the cells were washed twice with cold FACS Buffer, and the cells were analyzed by flow cytometry (BD LSR Fortessa Flow Cytometer). The data were analyzed using the FlowJo software by sequentially gating the FSC-A vs. SSC-A, and SSC-H vs. SSC-A. Mean fluorescence intensity (MFI) values for PE were calculated, and the data were plotted by GraphPad Prism software.

[4] = molecular target: T3, wild type full-length human TIGIT …; experiment: flow cytometry, dual binding: CHO hu-TIGIT cells with antibody and soluble huCD96-His, Alexa Fluor 488 anti-His detection
Description: Cells were centrifuged at 300 g for five minutes.
Antibodies were serially diluted 1-to-3 in FACS buffer.

[5] = molecular target: T4, wild type full-length cynomolgus monkey TIGIT expressed on CHO cells (cynomolgus monkey, UniProt A0A7N9I9V4 89-312); experiment: flow cytometry on CHO cells expressing cynomolgus TIGIT, PE anti-human IgG Fc detection
T4 construct: whole, on cells; also called cynomolgus TIGIT-CHO cells
T4 sequence (A0A7N9I9V4 entry or part of it): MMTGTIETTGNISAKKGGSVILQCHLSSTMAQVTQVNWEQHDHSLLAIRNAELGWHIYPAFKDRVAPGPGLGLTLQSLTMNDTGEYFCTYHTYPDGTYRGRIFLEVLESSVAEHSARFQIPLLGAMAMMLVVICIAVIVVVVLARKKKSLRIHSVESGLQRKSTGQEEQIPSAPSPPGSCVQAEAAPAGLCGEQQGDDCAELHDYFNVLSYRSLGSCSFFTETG

B1: anti-TIGIT×CD96 multispecific molecule BA123 (bispecific antibody, human IgG1, kappa, lambda)
heavy 1: QVQLVQSGAEVKKPGASVKVSCKASGYTFTSYGISWVRQAPGQGLEWMGWISAYNANTNYAQKLQGRVTMTTDTSTSTAYMELRSLRSDDTAVYYCARSAGVLGGMDVWGRGTLVTVSSASTKGPSVFPLAPSSKSTSGGTAALGCLVKDYFPEPVTVSWNSGALTSGVHTFPAVLQSSGLYSLSSVVTVPSSSLGTQTYICNVNHKPSNTKVDKRVEPKSCDKTHTCPPCPAPELLGGPDVFLFPPKPKDTLMISRTPEVTCVVVDVSHEDPEVKFNWYVDGVEVHNAKTKPREEQYNSTYRVVSVLTVLHQDWLNGKEYKCKVSNKALPAPIEKTISKAKGQPREPQVYTLPPSREEMTKNQVSLSCAVKGFYPSDIAVEWESNGQPENNYKTTPPVLDSDGSFFLVSKLTVDKSRWQQGNVFSCSVMHEALHNHYTQKSLSLSPG
light 1: not shown
heavy 2: EVQLVQSGAEVKKPGSSVKVSCKASGYTFASYGISWVRQAPGQGLEWMGGITPFFNRVDVAEKFQGRVTITADKSTSTAYIELSSLRSEDTAVYYCARDLRRGGVGDAFDIWGRGTLVTVSSASTKGPSVFPLAPSSKSTSGGTAALGCLVKDYFPEPVTVSWNSGALTSGVHTFPAVLQSSGLYSLSSVVTVPSSSLGTQTYICNVNHKPSNTKVDKRVEPKSCDKTHTCPPCPAPELLGGPDVFLFPPKPKDTLMISRTPEVTCVVVDVSHEDPEVKFNWYVDGVEVHNAKTKPREEQYNSTYRVVSVLTVLHQDWLNGKEYKCKVSNKALPLPEEKTISKAKGQPREPQVYTLPPSREEMTKNQVSLWCLVKGFYPSDIAVEWESNGQPENNYKTTPPVLDSDGSFFLYSKLTVDKSRWQQGNVFSCSVMHEALHNHYTQKSLSLSPG
light 2: QSALTQPRSVSGSPGQSVTISCTGTSPDVGSHAYRSWYQQHPGKAPKLMIYEVSYRPSGVSNRFSGSKSGNTASLTISGLQAEDEADYYCSSYPPSSATVFGAGTKLTVLGQPKAAPSVTLFPPSSEELQANKATLVCLISDFYPGAVTVAWKADSSPVKAGVETTTPSKQSNNKYAASSYLSLTPEQWKSHRSYSCQVTHEGSTVEKTVAPTEC
notes: copies: 1 + 1 + 1 + 1
[1]
  Kd: 48 nM
  koff: 0.00379 s⁻¹
  kon: 79000 M⁻¹ s⁻¹
[2]
  EC50 (read off the curve): ~1 µg/mL

B2: anti-TIGIT monospecific antibody BA148 (antibody, human IgG1, lambda)
heavy: EVQLVQSGAEVKKPGSSVKVSCKASGYTFASYGISWVRQAPGQGLEWMGGITPFFNRVDVAEKFQGRVTITADKSTSTAYIELSSLRSEDTAVYYCARDLRRGGVGDAFDIWGRGTLVTVSSASTKGPSVFPLAPSSKSTSGGTAALGCLVKDYFPEPVTVSWNSGALTSGVHTFPAVLQSSGLYSLSSVVTVPSSSLGTQTYICNVNHKPSNTKVDKRVEPKSCDKTHTCPPCPAPELLGGPDVFLFPPKPKDTLMISRTPEVTCVVVDVSHEDPEVKFNWYVDGVEVHNAKTKPREEQYNSTYRVVSVLTVLHQDWLNGKEYKCKVSNKALPLPEEKTISKAKGQPREPQVYTLPPSREEMTKNQVSLTCLVKGFYPSDIAVEWESNGQPENNYKTTPPVLDSDGSFFLYSKLTVDKSRWQQGNVFSCSVMHEALHNHYTQKSLSLSPGK
light: B1 light 2
notes: IgG1; also called anti-TIGIT IgG1 antibody BA148
[3]
  EC50 (read off the curve): ~0.008 µg/mL

B3: anti-TIGIT×CD96 multispecific molecule BA127 (bispecific antibody, human IgG1, kappa, lambda)
heavy 1: QVQLVQSGAEVKKPGASVKVSCKASGYTFTTYALHWVRQAPGQRLEWMGWINTGSGDTKYSQKFQGRVTITRDTSASTAYMELSSLRSEDTAVYYCARSLGVYYGMDVWGQGTLVTVSSASTKGPSVFPLAPSSKSTSGGTAALGCLVKDYFPEPVTVSWNSGALTSGVHTFPAVLQSSGLYSLSSVVTVPSSSLGTQTYICNVNHKPSNTKVDKRVEPKSCDKTHTCPPCPAPELLGGPDVFLFPPKPKDTLMISRTPEVTCVVVDVSHEDPEVKFNWYVDGVEVHNAKTKPREEQYNSTYRVVSVLTVLHQDWLNGKEYKCKVSNKALPAPIEKTISKAKGQPREPQVYTLPPSREEMTKNQVSLSCAVKGFYPSDIAVEWESNGQPENNYKTTPPVLDSDGSFFLVSKLTVDKSRWQQGNVFSCSVMHEALHNHYTQKSLSLSPG
light 1: not shown
heavy 2: B1 heavy 2
light 2: B1 light 2
notes: Anti-CD96 arm = BA139, anti-TIGIT arm = BA150; copies: 1 + 1 + 1 + 1
[4]
  EC50 (read off the curve): ~0.3 µg/mL
[5]
  EC50 (read off the curve): ~0.2 µg/mL
